Test results published in the DeepSol protein solubility set.

test: soluble on expression in E. coli; label from the status in PepcDB or PDB records

Row | Sequence | soluble on expression in E. coli
1 | MNEVLELKEELLQIKNNNYAVPEDVDAYPYAQWMLDYIGSPDAELRDDLIYSTLHTWITNDVFRQKELRGLMLQAISPDYLFYKIGEKGTDSVFKRAFSVLIPPLILSVHEREPLLSEEQLYSVAEQVLEYVYLEEDVRGYVEGKGWAHSTAHAADALDALARTIQNREFSYAILAAVRQKVRLSDYVYVHFEDERLVKPIMSLHNQKLLTEEEWSNWLHSIATVEDIRHPQHAILVQNIRSFLRSLYFRVLETEGSTAFTDDILETLKGLRRY | not soluble
2 | MGMKYLIKLKYIKPAQLAVNREQKLAEFYPIFEDGTLGRVEAKARVFLPEYSDFAKGLGFEVKKRRMITEDDYAYLRAMVYGVVMGVLRNPGDWRRLEERVLEMEPIELRYWASKFRNAYWKYKNMRKLMFLARRFMEVEMILEHHHHHH | soluble
3 | MGSDKIHHHHHHMLLAPEDKLNERRAEYPGIEVHPLKFCSSELQAGHWKFLMGAIGNQAAYIRQLGNIMRKNRNNLSIQAIRDGIQNSSLSDSLKDLADMRLDFAEQYIDDQLNVGSLIRPGRMIVVDVRDEFIEKDEALGLFVVLLQIFSEAKYQGQSFNKLIVFDECHKYIDSPDLVKGLVETVREMRHKGTSVMIASQDPPSVPIELIQLSSQIILHKFNAPDWLKHIQKACIGLKSLTPEKLGALKPGEAFIWSSKASDNAFVSDAMKIQCRPRVTKHGGDTLTAI | not soluble
4 | MGSDKIHHHHHHMERSWTINGRFLAQPLTGVQRYAFEIVRALDELIVNQPLLASRLKIELLVPRDAKVPSLRAISTRAIAIAPMHGHLWEQAALAAHVRGGLLSFCNTGPLSVRKQILCIHDVNTRTYPQSYSLPFRLLYRTLLPALGRRVAAVATVSRYSAGELVRHRICGPDKITVIPNGHEHAASWKPRHSQRTRAVAGRDTIVVIGSAIAHKNTGLIIGMAERLAAVGLRIAVVGMSDARVYRTSGRKESASNVTWLGRLSDEELAALLQDCLCLAFPSFIEGFGLPPLEAMAIGCPIVVSNRASLPEICGEAALYASPNDAEAWFDRFMRVRNMPDVRDEMIGIGRMQASNFQWKASASRYLDIMAVLDGMSKPSGGPVAVSIA | not soluble
5 | GSHMAAQSGNDAAEVALYERLLQLRVLPGASDVHDVRFVFGDDSRCWIEVAMHGDHVIGNSHPALDPKSRATLEHVLTVQGDLAAFLVVARDMLLASL | soluble
6 | MGSDKIHHHHHHKSTFKQELAVGASFGLNFSSVSFAPKVPTKMKLGFNGGATIRWNTEPNLGIQAELNFTQHGWEEKFEEKPQYKYSRTVNYMELPFLTHIHFGSKRVRVFVNLGPKIGYALSESTESNLNGENPNANRPDEQHTLEVQKKFDWGLCGGPGIELRTGIGSFLLEGRYYYALGDMFNSRKGDTFSKSSSQIISAKLTYLIPIFSK | not soluble
7 | MPIDAMSDRNHAFASDEPPEIQVHPHDRYHAVIKKCASLPPLVTAVVHPVDSQVLSAVSDAVMEKLITPLLVGPAGRIEKAADEAGIDLSKWQVIDTPHSHAAAEKAVELAAAREVGAIMKGSLHTDELLGPIVARGSGLRTGRRLSHAYVMDTAGYHKWLIVTDAVVNISPDLCAKADICRNAVDAWVALTGESCLPKIAVLAAVEVVNAAMQATLDAAALCKMAERGQITGCIIDGPLAFDNAISRQAAKEKHIVSQVAGDADILLAPDIEAGNILAKQLTFISHADAAGVVMGAKVPVILTSRADNLRTRLLSCALAVLVQRAKEEGRIK | soluble
8 | MAHHHHHHMWHTTVMVPTQHWGAVGYFPAIVTRPSQLNFSGSYDPVAWSGPPSYPGQFAAGNRRQLGQQEQYRQPYSNYHNRPQPHRQMHAQPPYMAHRMTVNAVTYGFGDPTLGVYRTSADGWKYRGAYGGGRRPSPPFQAMVTRPLVSSNGRRRRGTHARANMAGGWGDLDTYDLYAFEAGENLDVDNMSYEELLELTERLGMVERGVQPARLNELRVVITPTHVKQQLESDRMVAGRNGLVKGGANIDQEEKEANEKMCEEDPIKCCICLDGVLVGQTATRMPCCRNFLHASCAAPWFV | not soluble
9 | MSLKTGRTNTIVVLVPNLINPFFMRIIGGIEQAAQERGFTVLLCDTQGESKRESDYASMVLTNRADGLIQLDHSFPFTEDDAKLAETIPMVSVCERIHSDKKYPVVALDNYAASRALAHHLVSYGHTKFAVIVGQVVSQIHKDRLYGLRSVLAEEDIEFDEDMIVGQSYSIENGIEGMRQLLEKPNRPSAVICFNDDIAIGAMHEIHRQGLRVPEDISVVGFDNVKVAAFMNPPLTTIDQPAYEMGRRGMEILSDVINGVPLTRSSEMLPFQLLERESSGEGHHHHHH | not soluble
10 | MKWYTKYLQVYEKPFSEAPQEIVEEVRNKLKLLQSDNPLVTVSLIGYNEEKHLLASLWSLSEMKCKYPIEIIGTDNDSKDQTATIYEATGIPYVIEHQHSCGHARLCGLKRAKGKYHINIDSDTMYPPHYVETMVDALERPGIVAVSSLWSYIPDKEHSWVGLKIYEFIRDIHLWIQSIKRPELSVRGLVFAYRTDYARQVGIRTDIRRGEDGSLALRLKEYGNIYFIRKRKARAITGYGTISADGSLFNSFKVRAIYALKNIGRVFTRKKEYKDEDDNLIKS | not soluble
11 | MGAVSAFSWASSGRLHALEVFVMKIPKTYDEIMEHFGGLIDEVTAELLESYAKGETVRVSEALAKSGRVAVEGVVLRVFPVRHFSKNGRSGKVGSVVIQDDCTVRVNFWNEAAEIIEAGDIVEGARIKVRGYARGEEIHVNSLSEVEVFVDFVNISELDEKVGERVNVKGFVSGLGEPEKANEIYISDETGRVKVLLENESLYYAVDIGSYVEIYNALAGEDGIYVDRNSRFSVGELEHHHHHH | not soluble
12 | MSAASEAVSGALFQHLFRIFSLFADQNEKGTFKPAQAEFLIDELLRELRRQTTPKVHDLPENVTFNEFLNLLQVIFPDREDLLIATNRVFERYVNHVIGKGFVLFRKLSQKRGCLPFKRRTEDWQFGWLQVLPGVAEIRKQNSDIDDIIQFDEDTVIEPPVIDEDASVWSVICNSTTAFQFSHLDPIMAQLFVKGFLTYWKLNLKYFFSDMRSARDFPTREELAVFDYKRSLKSRPTKEGKSRKELETERCRLESELEEEKKNRKDEEIVRGLTTRLLKQEMEKSEQMQQVIYELRSKLDNGENEAGVDDEDIVDVEMIEDEISEDVGENEEISITLPSREEKIQQYAYHLYATQAEEHVTSDDEEIWKQNYNLIVSTHFTDTMWKSCKPIVYCSEIVSQIVNQSPFIFLINLNNDLHNRATLGLTTYLVSYRFPCSFFLIELKMTKLRVGFIGYGHLGKFLVEKLRLLPEEFEIVKIWNRSVGEPGVQGLETLTAENLKDIDLVVEVAHPKIIADYGELILEHCDLFAGSPTCFANQELLEKLTKLSLSHGKKLLIPAGALWGANDIQKMADVGSLKGLTVTMIKHPTSFKLGSPLFEINEKAKLEETNETVLYEGSVRGLCPLAPNNVNTMAGGALAASNLGFDEVKAKLISDPKMTDWHVVEVRVEGDDGFEVITRRNNPAKPGAVTGQLTYYSFLSSIKESRYKPIGVQLC | not soluble
13 | GPGSMLEPIFEEITCLFASRNPKHALQGLSDGLRNAATGVGLGLAGVVAGTYGGAKEGGLGGMAKGFGAGMAGFVGLTGYGAYAGVRQIVRGVGNTRSAVSEVSKGEAYWDSNAQAWVRVNLACDFERLPQTDEDLLGTARKAYEKAKKDGTLPTTLNDSAEGGGASASSATTGAGAASVPQGTDTGETKPAAAEPVNYYAFLGVESAATPSEIRKAYTRKALEMHPDKNPNDPNATIKFQELNKIYNVLSHEGTRATYDRYGTVDPMNVPEMTGNPMKELLGAAFLEALVGPLHFFLVFEGGVLFTAEMKRELHARRRLRVAKNLVSWLDNGASGFESAQLALRDAVSTALGPVFVSYVAEEYHLASRQQLHGSNWKREMDSWYSSWATSASSLWHWTTMGARTARRAFVDKNLGEEDILRVLAVANERDVRQIVLQACRLVLFDMSVTPAQRQQRAMRLEELSVMAMKEVAREVASRERIGASEATAAAAEKGTTTKTPADTNATAPPFS | soluble
14 | MWPDNRIARDAHYLYRYDRHGRLTEKTDLIPEGVIRTDDERTHRYHYDSQHRLVHYTRTQYAEPLVESRYLYDPLGRRVAKRVWRRERDLTGWMSLSRKPQVTWYGWDGDRLTTIQNDRTRIQTIYQPGSFTPLIRVETATGELAKTQRRSLADTLQQSGGEDGGSVVFPPVLVQMLDRLESEILADRVSEESRRWLASCGLTVEQMQNQMDPVYTPARKIHLYHCDHRGLPLALVSTEGATEWCAEYDEWGNLLNEENPHQLQQLIRLPGQQYDEESGLYYNRHRYYDPLQGRYITQDPIGLKGGWNFYQYPLNPVQYIDSMGLASKYGHLNNGGYGARPNKPPTPDPSKLPDIAKQLRLPYPIDQASSAPNVFKTFFRALSPYDYTLYCRKWVKPNLTCTPQDDSQYPGMDTKTASDYLPQTNWPTTQLPPGYTCAEPYLFPDINKPDGPATAGIDDLGEILAKMKQRTSRGIRKLEHHHHHH | not soluble
15 | MGSDKIHHHHHHMLEFVNVSKSFWTGTQRKIILDKVSFTVELGTSLGILAPNGTGKTTLINMMAGLEKPDEGEIYRGCKISFPLGFMGGVINRLSAMENCRYIARLYGLDPDYVESYCRWLCGLNEYFDQPLGTYSAGMKSRFSFALMLALDFDIYLIDEGMPSSTDVEFNRKAGIILQERLETTTIVIVSHQPRTLEKFANTAAVLMNGQLHMFETLEEAKQLYDYETQG | not soluble
16 | MSTGTPTTQKVVKTSIRLGPVNPPTPTRNTQGGHGFSAEFLEYRRRRQERHTVRLAKLPNETLIIGGANPFDARNVPEAIKKFRDLVDEKIGDKVHKKDANKSKIVFREEEEETQNGTITID | not soluble
17 | MSLTDVSRILKEARDQGRLTTLDYANLIFDDFMELHGDRHFSDDGAIVGGLAYLAGQPVTVIGIQKGKNLQDNLARNFGQPNPEGYRKALRLMKQAEKFGRPVVTFINTAGAYPGVGAEERGQGEAIAKNLMEMSDLKVPIIAIIIGEGGSGGALALAVADQVWMLENTMYAVLSPEGFASILWKDGSRATEAAELMKITAGELYKMGIVDRIIPEHGYFSSEIVDIIKANLIEQITSLQAKPLDQLLDERYQRFRKYEGHHHHHH | not soluble
